Reference: the nanobody polyreactivity screen of Harvey et al. (2022)

Experiment: yeast display, Sf9 membrane polyspecificity reagent, FACS + sequencing; frameworks hold sequencing errors
Outline: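 Genes from sorted yeast were amplified by colony PCR, read by MiSeq 2 × 250 sequencing and filtered on CDR length. These cells carried a synthetic nanobody library in Saccharomyces cerevisiae BJ5465 and were sorted by FACS into low and high (top ~1%) gates on anti-HA and streptavidin fluorescence. Polyreactivity is labelled according to the gate of origin.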

| Sequence | polyreactivity (PSR sort gate) |
| --- | --- |
| QVQLVESGGGLVQAGGSLRLSCAASGSTFGSYAMGWYRQAPGKERELVAAITTSGSSTYYADSVKGRFTISRDNAKNTVYLQMNSLKPEDTAVYYCNARPRRLSYSSYNYWGQGTQVTVSS | high polyreactivity |
| QVQLVEYGGGLVQAGGSLRLSCADSGRIFDVYAMGWYRQAPGKERELVARISDGGGSTYYADSVKGRFTISRDNAKNTVYLKMNSLKPEDTAVYYCAAGGDLRLDRRFAFVSRGDYWGQGTQVTVSS | low polyreactivity |
| QVQLVESGGGLVQAGGSLRLSCAASGSIFAYNAMGWYRQAPGKERELVAAISVSDGITYYADSVKGRFTISRDNAKNTVYLQMNSLKPEDTAVYYCAARTRGPYRAYDYWGQGTQVTVSS | low polyreactivity |
| QVQLVESVGGLVQAGGSLSLTCAASARTLNIYAMGWNRAAPGKERELVAAISKRGGTTYYADSVKGRFTISRDNAKNTVYLQMNSLKPEDTAVYYCNAAVRGVGELDYWGQGTQVTVSS | high polyreactivity |
| QVQLVESGGGLVQAGGSLRLSCAASGFTLTAYAMGWYRQPPGKERELVAAITYTGGSTYYADSVKGRFTISRDNAKNTVYLQMNSLKPEDTAGYYCAAEFLSVPYDYGYWGQGTQVTVSS | high polyreactivity |
| QVQLVESGGGFVQAGGSLRLSCAASGFTFTSYAMGWYRQAPGKEREFVAAIRRSGSGTNYADSVKGRFTISRDNAKNTVYLQLNSLKPEDTAVYYCAAEQWGWYWYDYWGQGTQVTVSS | high polyreactivity |
| QVQLVESGGGLVQAGGSLRLSCAASGSIFYWYAIGWYRQAPGKETELVAAISSGGSTNYADSVKGRFTISRDNAKNTVYLQMNSLKPEDTAVYYCNADIRSFYWEYYTGLDSWGQGTQVTVSS | low polyreactivity |
| QVQLVESGGGLVQAGGSLRLSCAASGFTFYRYAMGWYRQAPGKERELVASISWRGGNTYYADSVKGRFTISRDNAKNTVYLQMNSLKPEDTAVYYCAAGRSRIPSLLDYWGQGTQVTVSS | high polyreactivity |
| QVQLVESGGCLVQAGGSLSLSCAASGSTFPYPYTIGWYRQAPGKERELVAVISRTGGSTFYADSVKGRFTISRDNAKNTVFLQINSLKPEDTAVYYCARQRYEYRTTYYYWGLGTQVTVSS | high polyreactivity |
| QDQLVESRVGLVQAGGSLRLSCAASGMIIGIYDMGWYRQAPGKERELVAAIRRSGGSTYYADSVKGRFTISRDNAKNTVYLQMYSLKPEDTAAYYCATDAWYYSQTNHDYWGQGTHVTVSS | low polyreactivity |
| QVQLLESGGGLVQAGGILRLRCAASGIIVRGYVMGWYRQAPGKESELVAAISTSGGRTSYADSVKGRFTISRDNAKNTVYLQMNSLKPEDTAVYYCAARPLYSYSQSGYGYWGQGTQVTVSS | high polyreactivity |
| QVQLVESAGGLVQAGGSLSLSCAASGSIFIWYAMGWDRQAPGKERELVAAIRSGGSTYYADSVKGRFTISRDNAKNTVYLQMNSLKPEYTAVYYCAKVLTWRGYRYNYWGQGTQVTVSS | low polyreactivity |
| QDQLVESGGGLVQAGGRLRLSCAASVRIFWVNAMGWYRQAPGKERELVAAISWTSGSTYYADSVKGRFTISRDHANNTVYLMMNSLKPEDTAVYYCNKVQSGEYDYWGQGTQVTVSS | high polyreactivity |
| QVQLVESGGGLVQAGGSLRLSCPASGRILWFYAMGWYRQAPGKERELVAAISWNGGSTYYADSVKGRFTISRDNAKNTVYLQMNSLKPEDTAVYYCNKDPSVEWWFDYWGQGTQVTVSS | low polyreactivity |
| QVQLVESGGGLVQAGGSLRLSCAASGSIFDIYAMGWYRQAPGKETELVAAISWNGGDTTYADSVKGRFTISRDNAKNTVYLQMNSLKPEDTAVYYCAADLGYWVADYYWGQGTQVTVSS | high polyreactivity |
| QVQLVESGGGLVQAGVSLRLSCAASGRTFGHYTMGWYRQAPGKERELVARISRTGSTKYADSVKGPFTISRDNAKNTVYLQMNSLKPEDTAVYYCARVQAGGYGERVYAYHYDYWGQGTQVTVSS | high polyreactivity |
| QVQLVESGGGLVQAGGSLRLSCAASGFIFPTYAMGWYRQAPGKERELVAAISYRGGITSYADSVKGRFTISRDNAKNTVYLQMNSLKPEDTAVYYCAARGAWGYEYWGQGTQVTVSS | low polyreactivity |
| QVQLVESGGGLVQAGGSLRLSCAASGYTFPSNAMGWYRQAPGKERDWVAAISSGGRTNYADSVKGRFTISRDNAKNTVYLQMNSLKPEDTAVYYCNADGGPGYPRAYDYWGQGTQVTVSS | low polyreactivity |
| QVQLVESGGGLVQAGGSLRLSCAASGSTFTSYAMGWYRQAPGKERELVAAITRNGGTTYYADSVKGRFTISRDNAKNTVYLQMNSLKPEDTAVYYCNAPHYYYITSDRRFDYWGQGTQVTVSS | low polyreactivity |
| QVQLVESGGGLVQAGGSLRLSCAASGRIFYFYALGWYRQAPGKERDLVAAINIGGSTNYADSVKGRFTISRDNAKNTVYLQMNSLNPEDTAVYYCNAEAYSRSDYYRYDYWGQGTQVTVSS | low polyreactivity |
| QVQLVESGGGLVQAGGSLRLSCAASGITFYYYTMGGYRQAPGKERELVAGITRGGRTYYADSVKGRFTISRDNAKNTVYLQMNSLKPEDTAVYYCNADPWWRFDYWGQGTQVTVSS | low polyreactivity |
| QVQLVESGGGLVQAGGSLRLSCAASGFIFSKNAMGWYRQAPGKERELVAAISTRGGSTYYADSVKGRFTISRDNAKNTVYLQMNSLKPEDTAVYYCNKEWYPYKHNYWGQGTQVTVSS | low polyreactivity |

| Sequence | polyreactivity (PSR sort gate) |
| --- | --- |
| PVQLVDSGGGLVQAGGSLRLSCAASGSIFYRNALGWYRQAPGKERELVAAISGRGGSTNYADSVKGRFTISRDNAKNTVYLQMNSLKPEDTAVYYCNRYGVANILVRGGYWGQGTQVTVSA | high polyreactivity |
| QVHLVESGGGLVQAGGSLRLICAASGFTFAVYAMGWYRQAPGKERELVAAISRSSGRTYYADSVKGRFTISRDNAKNTVYLQMNSLKPEDTAVYYCNARRGSPAPYDYWGQGTQVTVSS | high polyreactivity |
| QVQLVESCGGLVQAGCSLRLSCAASGSIVAWYTMGWYRQAPGKERELVAGITASGGSTYYADSVKGRFTISRDNAKNTVYLQMNILKPEDTAVYYCAATNPFRYRRGGYWGQGTQVTVSS | high polyreactivity |
| QVQLVESGGGLVQAGGSRRLSCAASGSIFATYAIGWYRQAPGKERELVAAISWSGGRTYYADSVKGRFTISRDNAKNTVYLEMNSLKPEDTAVYYCNAVTLLGTRGYGYWGQGTQVTVSS | high polyreactivity |
| QVQLVESGGGLVQAGGSLRLSCAASGFIFDYYAMGWYRQAPGKERELVAAITWSGGSTYYADSVKGRFTISRDNAKYTVFLQMNSLKPEDTAVYYCNAYNWTYCEYEYWGQGTQVTVSS | high polyreactivity |
| QVQLVESAGGLVQAGGSLRLSCSAYGIIFSRYAMGWYRQAHGKERELVAAITSGGSTSYADSVKGRFTISRDNAKNTVYLQMNSLKPADTAVYYCAAQFFYRKSGTWAVYRYNYWGQGTQVTVSS | high polyreactivity |
| QVQLVESGGGLVQAGGSLRLSCAASGFTFRLYTMGWYRQAPGKERELVAGISTSGGSTYYADSVKGRFTISRDNAKNTVYLQMNSLKPEDTAVYYCAAQAFTSYDYWGQGTQVTVSS | high polyreactivity |
| QVQLVESGGGLVQAGGSLRLSCAASGYIFDDYAMGWYRQAPGKERELVAAISRGGSTYYADSVKGRFTISRDNSKNTVYLQMNSLKPEDTEVYYCAAVYRVRRITYVYWGQGTQVTVSS | high polyreactivity |
| QVQLVESGGGLVQAGGSIRLICAASGRNYAVYAMGWYRQAPGKERELVAAITYGGGRTYYADSVKGRFTISRDNEKNTVYLKLNSMNPEDTAVYFCAADYFGTDYDYWGQGTHVTVSS | low polyreactivity |
| QVQLVESGGGLVQAGGSLRLSCAASGSTFKRNAMGWYRQATGKERELVAAISTNGGRTYYADSVKGRFTISRDNAKNTVYLQMNSLKPEDTAVYYCAVDLFDGVTKLNYDYWGQGTQVTVSS | low polyreactivity |
| QVQLVESGGGLVQAGGSLRLSCAASGRIFQWYAMGWYRQAPGKERELVAAISWRDGRTYYADSVKGRFTISRDNAKNNVYLQMNSLKPEDTAVYYCAVRTFGRYGYWGQGTQVTVSS | high polyreactivity |
| QVQLVESGGGIVQAGGSLRLSCAASGITFPNYAMGWYRQAPGKERELVAAISSSGGSTYYADSVKGRFTISRDNPKNTVYLQMNSLKPEDTAVYYCATAINVYPRLDYGYWGQGTQVTVSS | low polyreactivity |
| QVQLVESGGGLVQAGGSLRLSCAASGSIFYYYAMGWYRQAPGKEMELVAAIDSGGSTYYAHSVKGRFTISRDNAKNTVYLQMNSLKPEDTAVYYCAADTYWFVYYGYDYWGQGTQVTVSS | low polyreactivity |
| QVQLVESGGGLVQAGGSLRLSCAASGFTFRVNAMGWYRQAPGKERELVAAISSGGSTNYADSVKGRFTISRDNAKNTVYLQMNSLNPEDNAVYYCAKRFKYIYYWGQGTQVTVSS | high polyreactivity |
| QVQLQESGGGLVQACGIQRLSCAATGSISEGQDMGWYSRSPGKERECVAGIAPGATTYYADSLKGRFTISRDNAKKTVYLQMTSLKPEDTAVYYCAARSVTETDHDYWGQGSQVTVSS | low polyreactivity |
| QVQLVESGGGLVQAGGSLRLSCAASGYTSYVYAMGWYRQAPGKERELVAAISLRTASTYYADSVKGRFTISRDTAQKTVYVQMNSLKPEDTAVYYCARGRETYRYSYRLNYWGQGTQVTVSS | high polyreactivity |
| QVQLVESGGGLVQAGGSLRLSCAASGNILWFNAMGWYRQAPGKERELVASISSSGGRTYYADSVKGRFTISRDNAKNTVYLQMNSLKPEDTAVYYCAAEYYYGWTYSGGLGFLGYNYWGQGTQVTVSS | low polyreactivity |
| QVQLVESGGGLVQAGGSLRLSCAASGIIFGKYAMGWYRPAPGKDRELVAAINYSGSTYYADSVKGRFTISRDNAKNTVYLQMNSLKPEDTAVYYCAARNRTFFQPTYYYWGQGTQVTVSS | high polyreactivity |
| QVQHVESGGGLVQAGGSLRLSCAASGNIFTRNPMGWYRQAPGKERELVAAINYSGGSTYYADSVKGRFTISRDNAKNTVYLQMNSLKPEDTAVYYCAKDYAPSTDSYDYWGQGTQVTVSS | low polyreactivity |
| QVQPQESGGGLVQAGGSLRLSCAASGTIFAFQTMGWYRQAPGKERELVASITYGSSTNYADSVKGRFTISRDNAKNTVYLQMNSLKPEDTAVYYCAKSAQRYSYRYYYWGQGTQVTVSS | high polyreactivity |
| QVQLVESGGGLVQAGGSLRLRCAASGSIFIGYAMGWYRQAPGKERELVAAITSGSITNYAYSVKGRFTISRDNAKNTVYLLMNSLKPEDTAVYYCNADVNFIDDDYWGQGTQVTVSS | low polyreactivity |
